Data published in patent US8084276B2, “Method for identifying a subject at risk of developing heart failure by determining the level of galectin-3 or thrombospondin-2” (Universiteit Maastricht, priority 2003, dated 2011).

B1: galectin-3: murine recombinant galectin-3 added exogenously to rat cardiac fibroblasts (protein, UniProt P16110 2-264, looked up)
Galectin-3: ADSFSLNDALAGSGNPNPQGYPGAWGNQPGAGGYPGAAYPGAYPGQAPPGAYPGQAPPGAYPGQAPPSAYPGPTAPGAYPGPTAPGAYPGQPAPGAFPGQPGAPGAYPQCSGGYPAAGPYGVPAGPLTVPYDLPLPGGVMPRMLITIMGTVKPNANRIVLDFRRGNDVAFHFNPRFNENNRRVIVCNTKQDNNWGKEERQSAFPFESGKPFKIQVLVEADHFKVAVNDAHLLQYNHRMKNLREISQLGISGDITLTSANHAMI

How the values were obtained:
Ren-2 rats = test: Hemodynamics, hypertrophy and fibrosis in Ren-2 transgenic rats with and without ARB; type: in vivo, rat; conditions: 0.05 mg/kg/day candesartan from 7-13 weeks of age
Procedure: Homozygous Ren-2 rats were obtained from the Max-Delbrück-Zentrum für Molekulare Medizin, Berlin, Germany. 30 male Ren-2 rats on a Sprague Dawley (SD) background and 9 age-matched SD rats as controls were studied. Of 30 Ren-2 rats, 8 were sacrificed at 10-weeks of age and 8 were treated with 0.05 mg/kg/day of candesartan, an angiotensin II receptor type I blocker (ARB), from 7-13 weeks of age. Of the remaining 14 untreated Ren-2 rats, 6 were sacrificed at 13 weeks upon the development of clinical signs of heart failure and designated as HF-S rats. The remaining 8 Ren-2 rats were closely monitored and were sacrificed at 17 weeks when clinical signs of failure had not yet appeared. These rats were designated as HF-R rats. Hemodynamic parameters were determined before sacrifice and heart, lung and body weight were measured after the sacrifice. The procedure for care and treatment of animals was approved by the institutional animal care committee. Homozygous Ren-2 rats were obtained from the Max-Delbrück-Zentrum für Molekulare Medizin, Berlin, Germany. We studied 16 male Ren-2 rats and 8 age-matched controls from the non-transgenic background, Sprague Dawley (SD) rats. […] The remaining 4 Ren-2 rats were monitored and were sacrificed at 17 weeks when signs of clinical failure had not appeared. […] Heart, lung and body weight were measured after the sacrifice. […]

Rat cardiac fibroblasts = test: Cardiac fibroblast proliferation, methyl-[3H]thymidine incorporation; type: cell-based; conditions: 24 hours, control 145±4.8, p<0.01
Procedure: (§1) Rat cardiac fibroblasts were isolated from 2-day-old neonatal Sprague-Dawley rats, as described previously (Pokharel et al., Hypertension, 40: 155-161, 2002). Cells were cultured in Dulbecco's modification of eagle's medium (DMEM) supplemented with 10% foetal bovine serum (FBS), along with 1% L-glutamate, 50 U/mL penicillin, and 0.1 g/L streptomycin, and were incubated at 37° C. in a humidified 5% CO2 atmosphere. Twenty-four hours after seeding, cells were made quiescent by incubation with media containing 0.5% FBS for 24 hours. Cells were then treated with murine recombinant galectin-3 (control, 10 μg/ml and 30 μg/ml) for 24 hours. The number of dividing cells was determined by radio-labelled methyl-[^3H] thymidine incorporation (0.5 μCi per well) assay. Radioactivity was measured in the mixture of fibroblasts and scintillation liquid using LKB-Wallace beta counter (FSA Laboratory Supplies, Loughborough, UK).

cardiac fibroblasts = test: Secreted collagen, [3H]proline incorporation assay; type: cell-based, rat
Procedure: as §1
Secreted collagen was measured using a [^3H]proline incorporation assay. Briefly, cardiac fibroblasts were seeded in 6-well plates at 90-100% confluency. During the final 24 hours of incubation, 15 μCi/ml of L-[^3H]proline was added. Incorporated [^3H] proline from the condition medium was precipitated with 10% trichloroacetic acid (TCA) and counted with the scintillation counter. Statistical Analyses

Row | Molecule | dP/dtmax (Ren-2 rats; evaluated at 13 weeks) [mmHg/s] | LV weight/body weight % (Ren-2 rats; evaluated in sacrificed animals at 13 weeks) [%] | cardiac fibroblast proliferation (thymidine incorporation) (Rat cardiac fibroblasts; galectin-3 at 10 μg/ml) [cpm] | cardiac fibroblast proliferation (thymidine incorporation) (Rat cardiac fibroblasts; galectin-3 at 30 μg/ml) [cpm] | proline incorporation (collagen production) (cardiac fibroblasts; galectin-3 at 10 μg/ml, not significant, p=0.13) [cpm] | increase in proline incorporation (cardiac fibroblasts; galectin-3 at 30 μg/ml vs control) | proline incorporation (collagen production) (cardiac fibroblasts; galectin-3 at 30 μg/ml, control 707±52.8 cpm, p<0.05) [cpm]
1 | CCOc1nc2cccc(C(=O)O)c2n1Cc1ccc(-c2ccccc2-c2nnn[nH]2)cc1 [candesartan] | 8400±202 | 2.52±0.36 | – | – | – | – | –
2 | B1 | – | – | 309±4.8 | 347±17.5 | 992±72 | approximately 66% | 1066±56
